Data published in patent US20030180744A1.

How the values were obtained:
[1] = biological target: hKGF receptor on the surface of PC-3 prostatic carcinoma cells (UniProt P21802); experiment: saturation binding of 125I-hKGF on PC-3 cells, Scatchard analysis
[2] = biological target: hKGF receptor on the surface of PC-3 prostatic carcinoma cells (UniProt P21802); experiment: competition of unlabeled hKGF with 125I-hKGF for binding to PC-3 cells
[3] = biological target: hKGF receptor on the surface of PC-3 prostatic carcinoma cells (UniProt P21802); experiment: competition of unlabeled hKGF with 125I-hKGF for binding to PC-3 cells, full competition curve
[4] = biological target: hKGF receptor on the surface of PC-3 prostatic carcinoma cells (UniProt P21802); experiment: value used to calculate Ki from IC50 in the PC-3 cell assay (FIG. 12 legend)
[5] = biological target: human KGF receptor on transfected NIH3T3 cells (NIH3T3/FGFR-2) (human) (UniProt P21802); experiment: competition of unlabeled hKGF with 125I-hKGF for binding to NIH3T3/FGFR-2 cells, with 1 ug/ml heparin

B1: Recombinant human Keratinocyte Growth Factor (hKGF) (ligand, UniProt P21781 32-194, looked up)
chain: CNDMTPEQMATNVNCSSPERHTRSYDYMEGGDIRVRRLFCRTQWYLRIDKRGKVKGTQEMKNNYNIMEIRTVAVGIVAIKGVESEFYLAMNKEGKLYAKKECNEDCNFKELILENHYNTYASAKWTHNGGEMFVALNQKGIPVRGKKTKKEQKTAHFLPMAIT
A Kd [1] of 0.1 to 0.2 nM, an IC50 [2] of 70 nM and a Ki [3] of 7.7 nM were found for B1 in this work. For the same binder, the Kd [4] was 0.15 nM and the Ki [5] was 0.034 nM.
